This data set is described as follows: label from the status in PepcDB records.
As for “MKGIKSACALIVLTFFSALTQAATAVEMAKQAYFLIERDPLDLDQRNEASYLIQRANVLDGDEPWVAVAQSRLTLVSGYKVGQRHDRRAYEESAVSTARQQAERAVRNGPNLAMAHVQLAMVLIIQGELRTAWDHLNTADSLDEQSFYPWYLRTVIAIHHKDEKFAAEGFKEIESRASQKYQKRLLLHERMRLAKATKNLEERDRLHRKMIELDPDYAYAWGNYGSFLLGQKRYREAVHNLERAVELKPYGLAVSQLAEARRKLNQAF”, the protein production result is reported as “failed”.

Regarding “MGAGQTPHPQLIWPALLKQQGCNELLPLRTNDDWQRFCADSKHLLQYGDKLVDSNFHCFVLEEDAHWHPAAPLPPEGLNDLIRAHCATLGHCCTSKMHLHSVMDAIDFLNALEG”, the protein production result is “not failed”.

With “MRILLTTLNAKYIHVNLALRYLRACCRDLPHTFILDEFTINDHPEHIAAAIYRHRPDLVAFSCYIWNIEPTLAVAAILKKVRPELTILCGGPEVSFDTAAFLAQNPQIDLVITGEGEIPFRALLEQLAGQQRPPAGNREEPLTASMYRPAGGRPAPGPVPDPAAIPGLAWRRGAETIVNPPAPPLRDLDTIPFPYQEDLDAAGNELSQRTVYYETSRGCPFACGFCLSSTTEGLRYFSLERVRDDLERLLKAGVREIKFVDRTFNAHKKRALAIWEFLLSRRPRARCYFEIAGDRLDEEMLAHLNRVPPDLFQFEIGVQTIDAGVNARCNRRQDWARLAANTRRLREMGSIRLHLDLIAGLPGETYAGVGESFDAVVALKPHEIQLGFLKLLKGTTLRARADEFGYLFLDRPPYQVLASSAITYEEMLRLHAIEGLLKYYGNSHLADHAFAYLAATAFDGSYFAIYEALAAWWEARGLLRRGHSQRDLFNHLASFAIHLARGIATRVTVPPLPGYHDSILEINSHGDTPASGAEHSGCARNLTPAQLDRFYQLLKFDCLCRDRSRNFPGWMPPSPLTEEERSNWMARITTPRSMEKYMPGLVKESPANLRRHGFIELFPCHPERPEEDNPTIVFFYYGPPGSETRVYYLQAPPLVV”, the protein production result is given as “failed”.

Consider “MRFGPVALSAAKGALLAHSRKAPGWTLAKGTRLGDEDLALLAGLGVAEVVVARLDPGDVHEDEAAARVAAVLLGPGLTLGDAFTGRANLFAGGDGLLRLDAARFDRLNALCEGLTVATLPPFAKVAPRQMVATVKIIPFALPETVIAQAEALLAGAPALEVALFRPMRLALIQTHLPETAGKMLDKTASVTAGRMAALGGGLTVDRRCPHDTRALAACLSAVSAEKDVDLIAVAGASAIVDRGDVIPAAITRAGGRVDHLGMPVDPGNLILLGELAGRVVLGLPGCARSPAINGFDWVLDRLCAGLAVGGADLMAMGVGGLLKDTTARTQPRMAAVTHPSPAAPPRLGALVLAAGLSRRMGGVNKLLLDWRGKPLVAHAVDTVLAAGPAAVAVVIGHQGKAVRAALEGRAIALVENPDPGRGLGSSLKRGLAALPADLDGVIVCLGDMPGLTPRLLSRLIAAFAPLEGRAICLPTFGGRRGNPVLFAARFLPEMMEITGDIGARPVIAAHPDQTCEVAMDALAEGASVLMDVDTPEAAKALLSAGGLEHHHHHH”, for which the protein production result is on record as “failed”.

For “MGAFNRRNKRVNNGNVTHLRPFRRNQLRNDNAYDPDEHDLEYVRPRRRGIYLLPNAFTTAALFAGFFAIVQAMNMRFDVAAIAIFAAMVLDGMDGRVARITNTQSAFGEQYDSLSDMTSFGVAPALVMYEWILHDLGKWGWIAAFVYCTCAALRLARFNANIGVVDKRFFQGLPSPAAAALVAGFVWLAIDNKLPVKELWMPWVAFGITLYAGLSMVSNAPFYSGKALDVRYRVPFGMMVLVLVLFVVVSSDPPVALFGLFVAYAISGYLLWAWRTLHGQRGGVDKSRAPGNGSGGN”, the protein production entry is on record as “failed”.

For the sequence “MNPAYRKAMLESEIQKLLMEALQQLRDPRLKKDFVTFSRVELSKDKRYADVYVSFLGTPEERKETVEILNRAKGFFRTFIAKNLRLYVAPEIRFYEDKGIEASVKVHQLLVQLGYDPLKDKEKKEEDKEEE”, the protein production entry is “not failed”.

Take “MKSVNYRLLFSKSIFLGIFFLNIVFAQAQNEKKYIKEGDAAAASGDSKTALNQYLQAYKLNQTNASLNYKIGVQYLKSEYPHKCLSYFESAYKLDPKVDKDILFNLGVAYQENHRFDEAADYFTKYRATLDPSNPFLKKIDRRLYECANGKEFMEKPVDVKIQSVSSVVNSPYSDFAPVISADEKVMIFTSRRPGSTGGSFDENGQYYEDIYISKKIAGQWGAPQNIGSNINTEFHDASIALSADGSELFIYKDDNAGDIYYCKQRADGSWSKPLPIEGSVNSRTYRENAAAVSPDGNTLFFASNREGGYGKLDLYMVKMNDKGFWGKPINLGPTINTEVDDESPFMDFDGMTLYFSSRAHKGMGGLDIFKTYYDSTKGDWTEPINMGYPINSADDDINFVLSGDGGHGYYASAKDDGVGEKDIYMISMPPREDRTKLIEKMKAMHLDAPIADVVPAPTVAAVLLPITIKGVVKDAETGKPMQTVVQLTDENGKLIAEKNVGPDGLYSFTVKNEAATSYTLSTEKEEFGFINKTFSVPGEKTSSQEITQNLALKKLAVGNVYVLRNIYFDFDKATLKSASNKELNNLLQLLKQNPEMEIEISGHTDSKGSDEYNRVLSRKRAQAVVNWLVSKGISKNRLKFEGYGESRPLASNDDELEGRELNRRTEFKILKK”: the protein production entry is reported as “failed”.

As for “MIKVGVIGFGTVGQGVVESLVQLERGLRKEVTLEMLLVTNRRKHEHSEQYALVTDDWETFAARYYDVVFEAAGGIEPVYDYVRFFLKKGVPVVTANKKLVAERGEELERLAAENDTYLCYEAAVAGGIPILNAIKGTLATTSFTSVAGILNGTTNYILTGMIEQNRPFQDMLEEAQAKGYAEADPTDDIEGYDAWYKIRILARLCFGIWPNRDDISRSGLHDVLDWHVELGQSLGLTLKLDGRASVKNNTIIGSVAPAFFTNDHPFSTVYGVTNAVVLEGKAIERLLFTGPGAGKEATANSMVEDYLFHERYKGERQPMLIKEKEQNRIANVLVMVAAHEKKEAEKVVEHLPCQRINTFAADEGEAWWLKVYEDVIPFISKQLGLSLYRVYGAFEKQLVTTNMHHPSSIDETLEQKA”, the protein production entry was “failed”.

Take “MKRSFSMMTDKRKLHRKKMKRKKRRRRLMFGCLLLFLVLAASGLGYASFLMHKMKTAMNEAYEEIGAKKNTGDHLDPKKDSFTVLFIGIDDSKTRNFKSDTRSDALILAAFNADTQLVKMVSIPRDSYVYIPCEDKYDKITHAHAYGGTKCTIESIERLFDIPIDYYVKMNFYAFIDVVDALGGIEVEVPYNIREKDAEDNRNAIVLKKGYQHLNGEEALALARTRKKDNDIERGKRQQQILQAILKKASHAGSISKYDDVIEAIGSNMKTNFTFDDIKALIYYVSTGNPLQTESLVLQGTDDNEGVYYYRLDEESVQQISDALRSQLHASAGTQLEKERN”: the protein production entry was “failed”.

As for “MGPLLVWHRGDLRLHDHPALLEALARGPVVGLVVLDPNNLKTTPRRRAWFLENVRALREAYRARGGALWVLEGLPWEKVPEAARRLKAKAVYALTSHTPYGRYRDGRVREALPVPLHLLPAPHLLPPDLPRAYRVYTPFSRLYRGAAPPLPPPEALPKGPEEGEIPREDPGLPLPEPGEEAALAGLRAFLEAKLPRYAEERDRLDGEGGSRLSPYFALGVLSPRLAAWEAERRGGEGARKWVAELLWRDFSYHLLYHFPWMAERPLDPRFQAFPWQEDEALFQAWYEGKTGVPLVDAAMRELHATGFLSNRARMNAAQFAVKHLLLPWKRCEEAFRHLLLDGDRAVNLQGWQWAGGLGVDAAPYFRVFNPVLQGERHDPEGRWLKRWAPEYPSYAPKDPVVDLEEARRRYLRLARDLARG”, the protein production result is recorded as “not failed”.

In the case of “MPVLATSLVSLKVEEPYLPPRNWESLPSQSGRFLPPTRSSASSSSSSSFVSESSLVRLALNALQGVESSLISIEQLSSAFCSEPADRTFHKIPSLWHRLSSTDALGQILRDIGCFGSLVFLLHKFVDHFTRLNLDVESAVEGQGSCKIGENEEVNNKSCYTLVNQAFAIAVRRVLEGYISGLDTLCASIELRRSSNIVDGSDHGSSRLGSLTNVVHPKITLLEVFLHTRELRTQIEALANICDLYDIALSYCASPWECLITEATTRFHGFYRGSDLLTYLYSQLQVADPTHSAMLKFLFLKTCEPYCEFIRSWMFKAELNDPHKEFIVECRSESTSFSWNKPGISPLKSVRERGGLVPCFLNGFLEPIVRAGQQLQVITKLLELCNLPASGHKNYTDLLPCWTYFSTTSPGYPSPITFSKLHIEVMIKKRDDYYRMMQEKLGDFSEKFEVFPGQVPGAISLPISYGDGDKNSIYFTLDESLLIPSTMAIDLTRDQSGSDSDDQNTEDRWFSEIDASCSSECSSTRDSLEASEVGLLDSQSTLVGPPPNYLSALRFSVASNGNCNQNLVQHSDSGYIDNNLVRQGEKADINHQWVDTKPEESTGVCEDDKFRGPLLIKSWPLGGLPRNPFCVDKKSADDDSEDPRNYSGARMEQRHLMNTDERKLFLNNISTSGSCSKHERRHDVLENCLSSKLDLMKDTKVNYPNDVLSMNPLVRCDFLRKHGNTNKRNQGKSLPWFDFSAVDDPSKTCITRIPVRVPIDFQKESHSPQTDRKSHRHANQERFDVEDPKVSSSQLSSGIKGCAEEKKSNAFGGGRWESMLRRSNNPETSAFSDRRQDSSGTFELPLDFVIDKCLLQEIHLQYPSRYFHLLEIYIFSKLAIKLLEEGFGLQEHLLALRRYHFMELADWADVFVVSLWHHKWLVTEADKRIAEIQGFLESSIQRSSCERDICKDRIFLYKRQGTMHIPPSTIGVRSFDFLRLGYRVDWPISIILTCDALTAYADVFSFLVQVKLAAYVLTDVWCSLKVKDMMDLESVHMAYLSEALRIGIQSTDRVPNDSWTKTLGINTSQNFDKELKELHKCHLRSPKHGKYGLSRFWDYLNFNLYYSDILHDSNIFSLIP”, the protein production entry is “failed”.

For the sequence “MLCACSGEQFRFEDQPGSPESLATRDFSASGLSSRNGGGDWDSKLEDIQVDEAESTLKEALSLNYEEARALLGRLEYQRGNFDAALQVFKGIDIKVLTPRIIKAIVEKTLPCKPRSKAVIVPPTTMSMHSVSLLLEAILLKARSLEELGSYKEAAEECKIILDVVENALPSGMPDGISGFAKLQDIFQKALELLPLLWKKAGNHHETIASYRRALSRPWNLDPQRLAVTQKSLALVLLYGSVEACPKDNIEEAIVLLMLLVKKMVVGDIQWDPELMDHLTYALSMTGQFEVLANYLEQTLPGVYTRGERWYLLSLCYSAAGIDKAAINLLKMALGPSESRQIPHIPLLLFGAKLCSKDPKHSRDGINFAHRLLDLGNSQSEHLLSQAHKFLGVCYGNAARSSKLDSERVFLQKKSLFSLNEAAKRGKADPELDVIFNLSVENAVQRNVQAALDGAVEYSSMVGGVSTKGWKHLAIVLSAEKRLKDAESILDFTMEEAGDIEKIELLRLKAVLQMAQEQPKKAMKTCSSLLGLIRAQEKSEQSESLLQKFETEAWQDLASVYGKLGSWSDAETCLEKARSMCYYSPRGWNETGLCLEAKSLHEEALISFFLSLSIEPDHVPSIVSIAEVMMKSGDESLPTAKSFLMNALRLDPRNHDAWMKLGHVAKKQGLSQQAAEFYQAAYELELSAPVQSFI”, the protein production result is reported as “failed”.

Turning to “MEEKSKYLSLVGAGALIGSISTVALLKLLSRSSLKQLNENPETNFLAGNGIESETRPDTVANGQDLLKDEIVSEHLTRNIQFFGLESQHKVTGSYVVVIGLGGVGSHAASMLLRSGVGKLLLVDFDQVSLSSLNRHAVATRADVGIPKAMCLKKHFSSIFPECHIEAKVMLYDSSSEEEILSGKPDFVLDCIDNIDTKVGLLAACVKRGLKVLSATGAGARADPTRIRVADIRESTIDPLSRSVRHRLRRKHGIEGGIPVVFSLEKPKAKLLPFEGTNGEDENPLDYQVVPGFRVRIIPVLGTIPAIFGQIMASYVITQLAGVQVQMEPIVNLDLDHYRLLHQRLIEHEETVYGTSAEVEVDVEEVMYIVKELWHGRSARDETAKDVGRGMWRAMNELMLVRWDAKKPATVSNLVLLKFKEADEHETKTLEEVKESETEFFERVSCVLKKAELDFYG”, the protein production result was “failed”.
